Source: patent publication US20250269026A1 (CHENGDU KELUN PRECISION BIOTECHNOLOGY, published 2025)

B1: G5-CAR (other)
chain: QVQLVQSGGGLVQPGRSLRLSCAASGFTFDDYAMHWVRQAPGKGLEWVSGISWNSGSIGYADSVKGRFTISRDNAKNSLYLQMNSLRAEDTALYYCAKDMGSSGWSPVDYWGQGTLVTVSSASGGGGSGGRASGGGGSDIQVTQSPSSLSASVGDRVTITCRASQGINHYLAWYQQKPGKAPKLLIYGASTLQTGVSSRFSGSGSGTEFTLTISSLQPEDFATYYCQQLNGYPLGYTFGQGTKVEIKRTTTPAPRPPTPAPTIASQPLSLRPEACRPAAGGAVHTRGLDFACDIYIWAPLAGTCGVLLLSLVITLYCKRGRKKLLYIFKQPFMRPVQTTQEEDGCSCRFPEEEEGGCELRVKFSRSADAPAYKQGQNQLYNELNLGRREEYDVLDKRRGRDPEMGGKPRRKNPQEGLYNELQKDKMAEAYSEIGMKGERRRGKGHDGLYQGLSTATKDTYDALHMQALPPR
notes: Chimeric antigen receptor on lentivirus-transduced human T cells; the signal peptide is left out here; also called G5 chimeric antigen receptor
B2: G16-CAR (other)
chain: QVQLVQSGAEVTKPGASVKVSCRASGYPFSNFFMNWVRQAPGQGLEWMGIINPIGGSTTYAQKFQGRVTMTRDTSTDTVYMELSSLRSDDTAVYYCARSSSHLGAFDIWGQGTMVTVSSASGGGGSGGRASGGGGSDIQLTQSPSSVSASVGDRVTITCRASQSISTWVAWYQHKPGVAPKLLIYASPTLQSGVPSRFSGSGSGTDFTLTISSLQSEDFATYYCQQAHSFPITFGQGTRLEIKRTTTPAPRPPTPAPTIASQPLSLRPEACRPAAGGAVHTRGLDFACDIYIWAPLAGTCGVLLLSLVITLYCKRGRKKLLYIFKQPFMRPVQTTQEEDGCSCRFPEEEEGGCELRVKFSRSADAPAYKQGQNQLYNELNLGRREEYDVLDKRRGRDPEMGGKPRRKNPQEGLYNELQKDKMAEAYSEIGMKGERRRGKGHDGLYQGLSTATKDTYDALHMQALPPR
notes: Chimeric antigen receptor on lentivirus-transduced human T cells; the signal peptide is left out here; also called G16 chimeric antigen receptor

Target: biotin-labeled MSLN antigen (UniProt Q13421 296-580, limits assumed, biotin label (site not stated))
Assay: flow cytometry; CAR-T cells labeled with biotin-labeled MSLN antigen, detected with fluorescent streptavidin
Source text: The nucleic acid sequence encoding the CAR was expressed under the drive of promoter, and the lentivirus-transfected T cells were labeled with biotin-labeled MSLN antigen, and then detected with fluorescently labeled streptavidin, and determined by flow cytometry, which reflected the expression level of the CAR on the surface of T cells. The CAR positive rate of the CAR-T cells obtained in Example 3 was detected by the above method, and the FACS detection results were shown in the following table.

Sequence of biotin-labeled MSLN antigen (Q13421 other isoform, or with tags, fused parts or gaps limits assumed): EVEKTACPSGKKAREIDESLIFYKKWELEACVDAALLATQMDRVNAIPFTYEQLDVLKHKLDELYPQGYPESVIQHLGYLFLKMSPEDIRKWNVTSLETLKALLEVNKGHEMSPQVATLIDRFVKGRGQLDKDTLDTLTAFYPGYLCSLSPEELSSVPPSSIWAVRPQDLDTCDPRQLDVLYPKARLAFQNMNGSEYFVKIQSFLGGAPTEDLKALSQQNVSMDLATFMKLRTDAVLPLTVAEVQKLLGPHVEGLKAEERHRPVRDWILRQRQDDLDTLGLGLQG

Binder | CAR positive rate [%]
B1 | 50.5
B2 | 41.5
